# Measurements published in paper PMC5204125, “Primase is required for helicase activity and helicase alters the specificity of primase in the enteropathogen Clostridium difficile” (Open Biology, 2016).
# Key:
# [1] = target: C. difficile replicative helicase CD3657, purified non-tagged (Clostridium difficile); experiment: SEC; analytical gel filtration, Superdex 200 10/300 GL, CD3657 and CD3654 equimolar 2.21 µM (monomer), without ATP; fractions on SDS-PAGE
# [2] = target: C. difficile replicative helicase CD3657, purified non-tagged (Clostridium difficile); experiment: SEC; analytical gel filtration of CD3657 and CD3654 at high concentrations (approx. 10 µM); Figure S3
# [3] = target: C. difficile putative helicase loader CD3654, purified non-tagged (Clostridium difficile); experiment: SEC; analytical gel filtration, Superdex 200 10/300 GL, CD3657 and CD3654 equimolar 2.21 µM (monomer), with 1 mM ATP; fractions on SDS-PAGE
# [4] = target: C. difficile replicative helicase CD3657, purified non-tagged (Clostridium difficile); experiment: as above
# [5] = target: C. difficile replicative helicase CD3657, purified non-tagged (Clostridium difficile); experiment: SEC; analytical gel filtration of purified CD3657 alone, at 10 µM and above (monomer)
# [6] = target: C. difficile replicative helicase CD3657, purified non-tagged (Clostridium difficile)
# [7] = target: C. difficile replicative helicase CD3657, purified non-tagged (Clostridium difficile); remark: listed apart in the source
# [8] = target: CD3657 helicase, bacterial two-hybrid fusion (Clostridium difficile); experiment: two-hybrid; bacterial two-hybrid: Zif fusion and RNA polymerase ω subunit fusion, Zif-dependent lacZ reporter in E. coli KDZif1ΔZ, β-galactosidase activity, n = 3
# [9] = target: CD3654 putative helicase loader, bacterial two-hybrid fusion (Clostridium difficile); experiment: as above
# [10] = target: T1, CD3657 helicase with CD3654 helicase loader (Clostridioides difficile, UniProt Q181Q5+Q181Q8); experiment: analytical gel filtration (Superdex […]) with SDS-PAGE; settings: 1 mM ATP; 2.21 uM each protein (monomer); ATP site inferred by the authors to be on CD3657 (Walker A), ATP binding itself not measured
# T1 construct: gene dnaC; full-length open reading frames, non-tagged, expressed in E. coli BL21(DE3) from pET vectors; CD3657 monomer 49 kDa, CD3654 38 kDa; most probably 6:6 dodecamer with ATP (522 kDa); with Helicase loader ATPase (DnaI-like AAA+ protein)
# T1 sequence (Q181Q8 1-442): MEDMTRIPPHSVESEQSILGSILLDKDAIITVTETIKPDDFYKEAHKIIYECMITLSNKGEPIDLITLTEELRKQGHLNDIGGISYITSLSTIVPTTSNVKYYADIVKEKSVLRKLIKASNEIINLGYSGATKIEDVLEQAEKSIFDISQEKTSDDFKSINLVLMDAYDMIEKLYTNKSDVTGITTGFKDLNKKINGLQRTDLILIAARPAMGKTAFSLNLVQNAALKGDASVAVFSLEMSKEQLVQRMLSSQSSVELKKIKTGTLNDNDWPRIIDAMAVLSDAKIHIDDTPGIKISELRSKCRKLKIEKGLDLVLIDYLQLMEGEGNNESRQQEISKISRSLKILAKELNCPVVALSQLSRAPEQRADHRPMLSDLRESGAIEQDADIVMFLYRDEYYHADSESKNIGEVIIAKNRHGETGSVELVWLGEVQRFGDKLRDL
# T1 sequence (Q181Q5 1-330): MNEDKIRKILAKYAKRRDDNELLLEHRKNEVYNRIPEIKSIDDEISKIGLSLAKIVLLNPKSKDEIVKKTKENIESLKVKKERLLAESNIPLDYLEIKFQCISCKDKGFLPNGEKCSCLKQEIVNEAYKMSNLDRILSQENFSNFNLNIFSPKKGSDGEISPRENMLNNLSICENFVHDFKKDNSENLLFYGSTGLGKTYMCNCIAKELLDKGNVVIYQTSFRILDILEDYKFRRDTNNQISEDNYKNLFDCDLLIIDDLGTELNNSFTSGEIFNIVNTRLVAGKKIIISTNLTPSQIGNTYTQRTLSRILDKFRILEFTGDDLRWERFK
compound,measurement,setting,value
"C. difficile replicative helicase CD3657, purified non-tagged (enzyme)",stoichiometry N,[1],6
same,stoichiometry N,[2],6
same,stoichiometry N (CD3657 per CD3654 (6:6)),[3],1
same,stoichiometry N,[4],6
same,stoichiometry N,[5],6
"C. difficile primase CD1454, purified without an affinity tag (enzyme)","RNA primer production by CD1454 on the 5′-d(CTA) 23-mer ssDNA template with against without CD3657, at [CD3657]6:[CD1454]3",[6],45.9 nmol
same,"helicase assay: displacement of a radiolabelled oligonucleotide annealed to ssM13 by CD3657 with equimolar CD1454 against CD3657 alone, time course to 35 min",[7],3.5 fold
"CD3657 helicase, bacterial two-hybrid fusion (enzyme)",fold β-galactosidase activity over the reporter strains with the individual plasmids,[8],3 fold
same,fold β-galactosidase activity over the reporter strains with the individual plasmids,[9],5 fold
Nc1ncnc2c1ncn2[C@@H]1O[C@H](COP(=O)(O)OP(=O)(O)OP(=O)(O)O)[C@@H](O)[C@H]1O [ATP],analytical gel filtration (Superdex 200) with SDS-PAGE,[10],CD3657 helicase and the loader CD3654 can form a complex in an ATP-dependent manner
